Data reported in the supplement of paper PMC12764529.
± gives the half width of the 95% confidence interval.

Assays:
[1] = folding stability dG unfold (combined trypsin and chymotrypsin); higher = more stable
In short: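 Unfolding free energy was derived, per protease or combined, by relating Bayesian-fitted K50 values from sequencing counts to a sequence-predicted unfolded-state K50 and a shared folded-state K50. The underlying digests exposed cysteine-free mini-proteins under 80 residues, in a PA-tagged cDNA display construct, to trypsin and chymotrypsin at 11 threefold-diluted concentrations and to a no-protease condition. A filter kept only designs with AlphaFold2 dimer inter-PAE above 15.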

[2] = folding stability dG unfold from trypsin proteolysis; higher = more stable
Method: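 Folding stability of de novo designed mini-proteins (<80 aa, no Cys; designed by TrROS, TrMRF, ProteinMPNN and the joint model) was measured by cDNA display proteolysis with trypsin and chymotrypsin. Each protease was used at 11 concentrations in a threefold dilution series plus a no-protease condition. K50 was inferred by Bayesian fitting of sequencing counts, and dG unfold was derived against a sequence-predicted unfolded-state K50 (Tsuboyama et al. method). Sequences shown include variable-length N-terminal GS-type padding (SAGGSAGG...) inside a display construct carrying a PA tag. Rows were kept only if the AF2 dimer inter-PAE was >15, to exclude likely homo-oligomers.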

Sequence	folding stability dG unfold [1] [kcal/mol]	folding stability dG unfold [2] [kcal/mol]
SAGGSAGGSAHTIEDPDNNKKIEVHPPPNGNYMVEIERPDNGEKKTIMMPPDDVEEALNQISAGGSAGGSAG [r3_162_TrROS]	< -1	-0.139 ± 0.2
SAGGSAGGSAGPPIYWRIEFENPGKKHTMTIPRDMPVDDIKEIADEIAKRFPMPISIEPVSAGGSAGGSAGG [r11_515_TrROS]	-0.565 ± 0.25	-0.335 ± 0.22
SAGGKWYVMVKYEWRNPDNGKERNIQVPINREALQEGDLEEAVEEAKKFAREWGYPIKKVEINLMPPGSAGG [r13_954_TrROS]	-0.232 ± 0.46	-0.106 ± 0.17
SAKVFTAEEIKALAEELEKAGLEVEAVVLDKDGKIVAVAPKELLKPPPVEEVKEVKVEVEDDPEKLKAAKSA [r9_568_TrROS_Hall]	< -1	-0.442 ± 0.97
SAGGSAGGSAGGGSSLVDPEGKPLPPRPEVVTTTGSYYSSLPGDGYYHLEEPVVEPVYPESAGGSAGGSAGG [r7_572_JUSTAS]	-0.198 ± 0.14	0.339 ± 0.051
SAGGNWIMIELPLDDLKNAKPNQKVKIEWPDGKPFEVNAHRHDGRYPVLVRNPENPDKWEPIGEIEIESAGG [r13_745_TrROS]	< -1	-0.0737 ± 0.11
SAGGSAGGSMEIVSTGSKEDAEEAVKEKVAAGEKARVVLRSPTDPTPVSEEEVTISEEELKEASAGGSAGGS [r12_241_JUSTAS]	< -1	-1.61 ± 0.88
SAGGSAGGSAMLKVTVKVPGTSKDYDFNVPESVGKEEAEKRLEEEYPGAEVTEIVEIPGEELSAGGSAGGSA [r18_242_JUSTAS]	-0.469 ± 0.26	0.545 ± 0.027
SAGGSAGGSSAEEIAKELGYKEIEVKPLRPVSTETLDSGGYSQKTEYVTTIKLPDGTEIEIPVSAGGSAGGS [r12_221_JUSTAS]	0.275 ± 0.051	0.788 ± 0.025
SAGGSAGGSPPYIRVKIEFQNPNGQERKFKITIPPDQPLSQAKDIAPDFAKNGYPVRIEDIEISAGGSAGGS [r12_804_TrROS]	< -1	-0.209 ± 0.17
SAGGSAGGSAGMTLEEKLKEAEEKHKKEGGPATITITDPTATGVSKTYTVTIENEGLKVESAGGSAGGSAGG [r11_954_JUSTAS]	-0.132 ± 0.36	0.034 ± 0.055
SAGGSAGGSAGGMYVIKITMGDRPRSIMVPPDNPEEIKNQLRDLGYNIKEISVERFPPGSAGGSAGGSAGGS [r10_405_TrROS]	-0.787 ± 0.56	-0.749 ± 0.61
SAGGSAGGSAGKITIRNPENGYAIKIKFGDKEKTIPIDPDQIDEFLEKLPGIKVEPYPWKSAGGSAGGSAGG [r11_57_TrROS]	-0.899 ± 0.59	-0.574 ± 0.2
SAGGSAGGSAGGMEKKLTLVTTRTPEGGSETILVDDSDPEKVRAELEEAGWTITETTSSSAGGSAGGSAGGS [r10_882_JUSTAS]	< -1	-0.793 ± 0.95
SAGGSSMLSPSESLPLPPDEDVEVSLPSPLSAKLTYDPATGTVSVTVTDPNNPGVPLSSTTRPLTASAGGSA [r2_266_JUSTAS]	-0.203 ± 0.22	0.662 ± 0.037
SAGGSAGGSAGGKPKITITQEQHPNGMHRVNVRNPNGKPIGEVPFDSPQQLEEAKEFLLDSAGGSAGGSAGG [r7_476_TrROS]	< -1	-0.608 ± 0.3
SAGMEIKIEKLEDGTYKITIKLYNKETNEEIEEIEIEVKKLKDGTYKVKIKIKNKETGKEFELEFEIKPSAG [r5_610_TrROS_Hall]	> 6	4.02 ± 0.34
SAGGSAGGSAGGMKPGEPVEIKIPVPGNGKKIPIEIPVGMPPEQARKFAKEIAEELEKNHSAGGSAGGSAGG [r7_957_TrROS]	< -1	-0.916 ± 0.2
SAGGSAGGSAGGSGSMVVEKVSPEPNVTKTIFFEPPEEGLVITVETLEGDTWSSQIILQSAGGSAGGSAGGS [r4_484_JUSTAS]	-0.0129 ± 0.3	0.657 ± 0.097
SAGMKFKPGAKVEVYNKKTKKKIVLPVEELRKLAREKFGVETEEERLAEAIKEKAKENGFEIVKIEPVSAGG [r19_67_TrROS_Hall]	-0.0445 ± 0.44	-0.166 ± 0.35
SAGGSPKPIAEAILKELGYPDAIVKNIPIEKLENGIIIIPLEVIYPKNPKKGKPIKRIIKPNEKFASAGGSA [r2_137_TrMRF]	< -1	0.108 ± 0.095
SAGGGGMPAVKEEVTPVPGGVLTTTTLPDGSVKVTVSPPSGPAVASATKPVPSGSSVTVTVTLRPAALSAGG [r13_584_JUSTAS]	-0.335 ± 0.087	0.367 ± 0.019
SAGGYDKEGKPIRVVEINIPPDQPDTILKFAREEIDNNRWDIIHITSPNQVKWIKQAFPEKGIPIHIQSAGG [r13_353_TrROS]	-0.167 ± 0.38	0.311 ± 0.3
SAGGSAGGSAGGPKTVTISGGPLEDLLEKLDNMPPDDTITIHHPGGYYTVKVENDKIKIVSAGGSAGGSAGG [r7_560_TrROS]	-0.69 ± 0.22	-0.416 ± 0.13

Sequence	folding stability dG unfold [1] [kcal/mol]	folding stability dG unfold [2] [kcal/mol]
SAGGSAGGSAMIVVTLDDPEEAREAVRARFGPEVEITPLETTTVGDRVFTKIAVRVPPELASAGGSAGGSAG [r3_87_JUSTAS]	-0.395 ± 0.24	-0.351 ± 0.19
SAKPIPAKDITINMHPPPGGNFNFEIELDDKEIGEHPFKSPEDMQEGMKEIAKELAALLGPDDIKIKPWSAG [r14_791_TrROS]	-0.0161 ± 0.25	0.4 ± 0.075
SAGGSAGGSAGGMTETLDFNGEKVVVTELPPTNTYQVTTTTPGTGVPTTTAARKEEVLTSAGGSAGGSAGGS [r10_482_JUSTAS]	-0.177 ± 0.28	0.443 ± 0.045
SAGGSAGGSAGGTAKELVNEIAKEFMQDHPNQEIPIEVEVRTNGKPVKAEIPIRLPPGQSAGGSAGGSAGGS [r10_1204_TrROS]	< -1	-0.402 ± 0.07
SAGGSAGGSAGGKVLVRFPTGEVPEVVEIDVPFEAGDPEKAKEIADELLAKGAEEVVLEDSAGGSAGGSAGG [r11_196_TrMRF]	-0.328 ± 0.35	0.117 ± 0.056
SAGGSAGGMKAKVLVLDPETGKEYDSLEELKAEVEGPVLIRNSTGELILLHRDDLKYFPLPLSLSAGGSAGG [r6_684_TrMRF]	0.0344 ± 0.2	0.305 ± 0.12
SASLENGGVKTVEDTEYDPATNTVTFKKVTTYYGDEVLSTSTATVPLPPKPLPPPPVVERDPTNPRYLESAG [r14_571_JUSTAS]	< -1	-0.368 ± 0.91
SARPLTIMNPDGMMYRLDPDEGEIEFQNASDGEELKIKVKPKGNGVEIDIEFNGQPHEHKIPKGDWIMIPSA [r9_239_TrROS]	0.157 ± 0.33	0.662 ± 0.088
SAGGSAGGSAKITITAPPGETYRIKVKVKNENGEWKEVTRTIKVGEPLEDIEEVEIERIEPESAGGSAGGSA [r18_223_TrROS_Hall]	-0.146 ± 0.27	0.0462 ± 0.12
SAGGSAGGSAGGDPLERKPVKVLVLHPDKPIELEVDVGLSPEEIARPFAEKGYEVRFEGSAGGSAGGSAGGS [r10_540_TrMRF]	-0.836 ± 0.39	-1.17 ± 0.29
SAGGSAMIRTFNIKFPGKSEEEALEAIKNLPEEVTEKIEEVKVEEIKKEGDSIYVKLTIKVPKEILSAGGSA [r15_244_JUSTAS]	0.00147 ± 0.51	0.636 ± 0.19
SAGGSAGGSAGMKVVLTVPESEAAKPEVLEAKAQEIKEKHPGEEVEVEFITNPFPPGTPLSAGGSAGGSAGG [r11_743_JUSTAS]	-0.108 ± 0.1	0.456 ± 0.019
MHKVEHTIKHPGYEIKIEVTMYPNPNGNYYVPIKIEREDPKDNKPKKKPIMVPFPPGDPDDFVDWALEEILS [r1_171_TrROS]	-0.207 ± 0.55	-0.189 ± 0.17
SAMKTTETITVTVEMEPEVAEEVAEEIAEKIEKEKNYEITEVKVSVFPTDGKYVVRVPIKITYPTPELKSAG [r14_219_JUSTAS]	< -1	-0.771 ± 0.42
SAGGSAGGSAGAAPDETTVTTTVTPSPGTTTVTTTTYTYAPPTNTVTSTTTTTTIPAGTASAGGSAGGSAGG [r11_237_JUSTAS]	0.127 ± 0.36	0.659 ± 0.057
SAGGSAGGSAKEVEVEVEEELPGGYYRATVRLPGEEKPLEVVVKGPREDALKAAEELAKEESAGGSAGGSAG [r3_104_TrMRF]	< -1	-0.0768 ± 0.16
SAGGSEVRELAEAIAAARGLPLRAIETKEVTPDTVEITMELPDDRTLTVTVPRSPEGGYEVTVTEDASAGGS [r8_284_JUSTAS]	< -1	-0.349 ± 0.26
SAGGSAGGSAGPKPIEFEDPDNGRKIEYWPEENQISIENPGDGKEKEYPMDSPEELKEWMSAGGSAGGSAGG [r11_936_TrROS]	< -1	0.117 ± 0.17
SAGGSAGGSASSSVTITNRVTNPDTGLRYITIPSKGERVTLSPDESATIPVPPDAPVSVLGSSAGGSAGGSA [r18_329_JUSTAS]	< -1	-0.694 ± 0.24
SAGSMEVKVEIPEEVLKKIESAPPGTVVEYTETVTITTTTTIPGPGNPVPLTSTTPSPIKLTYTKPSSPSAG [r5_946_JUSTAS]	-0.915 ± 0.31	-0.608 ± 0.06
SAGGSAGGSSSPEEIKAEFKKKGYPKVEVKPVTPDTYLVTVTSPGTGKTTEYPITGSPSGKGLSAGGSAGGS [r12_170_JUSTAS]	< -1	-0.822 ± 0.35
SAMTTLEKEGDVTITRTKLPDGTVVVTTEVPESRPLAELTTETITIYPDGTVTTTSQTLTLDPATGRLGSAG [r14_724_JUSTAS]	-0.567 ± 0.23	-0.146 ± 0.075
SAGGSAPNEEITIPIRIRVENPEDGKPIHEIPIPIKVPKGQTQDQILDQAKNWMEEHGMKIKEIEISAGGSA [r15_195_TrROS]	< -1	-1.32 ± 0.86
